Two substances from publication doi:10.1101/2025.11.17.688911 can be followed below.

Assay [1] deals with surface-immobilized biotinylated microtubules, Q2XVP4;Q767L7. The assay can be described thus: fluorescence intensity of GFP-tagged MAP9-MTBD on surface-immobilized MTs (fluorescence microscopy). To be noted: 100 nM MAP9 construct (stated for panel h and Extended Data Fig. 6b); parent: est. 0.72; read off a plot.
Assay [2] shares this target. The assay can be described thus: fluorescence intensity of GFP-tagged MAP9 on MTs (fluorescence microscopy). The conditions noted are these: 100 mM salt (stated for panel d); parent: est. 2.8; read off a plot.

For “MAP9-MTBD (Human MAP9 (302–647)::GFP::strepII) (from UniProt Q49MG5) Y429A; W432A; K436A; F473A; W476A; K480A”, the response in assay [1] stood at 0.05 a.u. On to “MAP9-MTBD (Human MAP9 (302–647)::GFP::strepII) (from UniProt Q49MG5) LHEMHRIK>LAEMHAIK; …>…; LKEKNRK>LAEKNAK; FKQKEKEK>FAQKEAEK; ERIERKQ>EAIERAQ”, for which the response in assay [2] worked out at 2.8 a.u.
